How the values were obtained:
[1] = biological target: T1, G3BP1 NTF2L (nuclear transport factor 2-like domain of Ras-GTPase-activating protein binding protein (human, UniProt Q13283 1-139)); test: ITC
[2] = biological target: T1, G3BP1 NTF2L (nuclear transport factor …); test: NMR titration

T1 sequence (Q13283 1-139): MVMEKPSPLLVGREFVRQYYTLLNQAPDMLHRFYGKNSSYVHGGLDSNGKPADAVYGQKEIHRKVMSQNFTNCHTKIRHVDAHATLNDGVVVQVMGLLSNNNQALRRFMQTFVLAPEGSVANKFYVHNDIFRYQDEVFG

B1: Caprin-1(347-386) peptide (peptide)
peptide: VAQADPLVRRQRVQDLMAQMQGPYNFIQDSMLDFENQTLD
B1 gave a Kd [1] of 1300 nM.

B2: Caprin-1(330-432) (domain or fragment)
chain: QPQAASPSVPEPHSLTPVAQADPLVRRQRVQDLMAQMQGPYNFIQDSMLDFENQTLDPAIVSAQPMNPTQNMDMPQLVCPPVHSESRLAQPNQVPVQPEATQV
modifications: 15N-labeled
B2: binds [2].

From PMC9636964 (Proceedings of the National Academy of Sciences of the …, 2022)
